Earlier results on one substance are cited in publication doi:10.1101/429795.

By pKa is commonly meant the pH at which an ionisable group is half protonated.

The target in the data set is Cys164 (UniProt position 164, MYQQGCFAGGT). The data set is described as follows: chemical modification.

Consider “Chalcone synthase (MsCHS; CHS2) (Medicago sativa)”, for which the pKa was 5.5.
